Assay results taken from patent US20250051413A1 (ASKGENE PHARMA, published 2025).

Biological target: human IL-12 receptor (b1 and b2 chain) (human, UniProt P42701 24-662; Q99665 24-862)
Experiment: cell-based or functional assay

Sequence of human IL-12 receptor (b1 and b2 chain) (Q99665 24-862, chain 2 of 2, other chains not shown): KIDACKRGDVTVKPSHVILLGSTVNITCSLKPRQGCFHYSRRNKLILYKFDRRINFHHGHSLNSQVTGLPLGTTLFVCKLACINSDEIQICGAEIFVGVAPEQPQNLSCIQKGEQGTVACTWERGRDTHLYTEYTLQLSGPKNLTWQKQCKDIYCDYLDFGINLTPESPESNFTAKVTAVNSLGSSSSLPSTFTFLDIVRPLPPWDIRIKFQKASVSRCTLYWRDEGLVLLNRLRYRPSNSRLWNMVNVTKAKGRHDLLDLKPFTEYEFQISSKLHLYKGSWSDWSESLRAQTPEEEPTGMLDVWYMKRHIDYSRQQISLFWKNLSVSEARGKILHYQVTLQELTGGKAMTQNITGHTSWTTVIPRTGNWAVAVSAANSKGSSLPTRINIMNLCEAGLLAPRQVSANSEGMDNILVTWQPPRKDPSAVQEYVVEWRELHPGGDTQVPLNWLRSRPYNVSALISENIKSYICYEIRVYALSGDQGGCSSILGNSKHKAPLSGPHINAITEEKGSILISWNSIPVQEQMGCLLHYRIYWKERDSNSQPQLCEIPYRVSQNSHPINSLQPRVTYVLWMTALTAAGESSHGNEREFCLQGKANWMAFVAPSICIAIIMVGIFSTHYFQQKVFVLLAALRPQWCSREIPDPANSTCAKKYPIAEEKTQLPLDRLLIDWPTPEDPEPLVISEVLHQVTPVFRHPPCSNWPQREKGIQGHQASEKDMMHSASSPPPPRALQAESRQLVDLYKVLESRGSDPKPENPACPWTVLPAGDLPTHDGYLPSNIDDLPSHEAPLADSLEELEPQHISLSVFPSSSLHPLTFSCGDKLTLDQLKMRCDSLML

EC50 of p-STAT4 induction in human PBMC, CD4+ T cells: 2.52 nM
EC50 of p-STAT4 induction in human PBMC, CD8+ T cells: 2.09 nM
EC50 of p-STAT4 induction in human PBMC, NK cells: 3.75 nM
fold decrease in cytokine releasing assay with human PBMC, activity relative to IL-12: ~1000 times
B1: ASKG129C (Fc fusion)
chain 1: QVQLVQSGVEVKKPGASVKVSCKASGYTFTNYYMYWVRQAPGQGLEWMGGINPSNGGTNFNEKFKNRVTLTTDSSTTTAYMELKSLQFDDTAVYYCARRDYRFDMGFDYWGQGTTVTVSSASTKGPSVFPLAPSSKSTSGGTAALGCLVKDYFPEPVTVSWNSGALTSGVHTFPAVLQSSGLYSLSSVVTVPSSSLGTQTYICNVNHKPSNTKVDKKAEPKSCDKTHTCPPCPAPEAAGAPSVFLFPPKPKDTLYITREPEVTCVVVDVSHEDPEVKFNWYVDGVEVHNAKTKPREEQYNSTYRVVSVLTVLHQDWLNGKEYKCKVSNKALPAPIEKTISKAKGQPREPQVYTLPPSREEMTKNQVSLTCLVKGFYPSDIAVEWESNGQPENNYKTTPPVLDSDGSFFLYSKLTVDKSRWQQGNVFSCSVMHEALHNHYTQKSLSLSPGGGGSGGGGSAAGGGGSGGGGSDIQMTQSPSSLSASVGDRVTITCRASQGISSWLAWYQQKPEKAPKSLIYAASSLQSGVPSRFSGSGSGTDFTLTISSLQPEDFATYYCQQYNIYPYTFGQGTKLEIKSGGGGSGGGGSGGGGSEVQLVQSGAEVKKPGESLKISCKGSGYSFTTYWLGWVRQMPGKGLDWIGIMSPVDSDIRYSPSFQGQVTMSVDKSITTAYLQWNSLKASDTAMYYCARRRPGQGYFDFWGQGTLVTVSS
chain 2: EVQLVESGGGLVQPGGSLRLSCAASGYTVSSYCMGWFRQAPGKGREGVSAIDSDGSVSYADSVKGRFTISKDNSKNTLYLQMNSLRAEDTAVYFCAADLCWVDQDQGEYNTWGQGTLVTVSSGSEPKSSDKTHTCPPCPAPEAAGGPSVFLFPPKPKDTLYITREPEVTCVVVDVSHEDPEVKFNWYVDGVEVHNAKTKPREEQYNSTYRVVSVLTVLHQDWLNGKEYKCKVSNKALPAPIEKTISKAKGQPREPQVYTLPPSREEMTKNQVSLTCLVKGFYPSDIAVEWESNGQPENNYKTTPPVLDSDGSFFLYSKLTVDKSRWQQGNVFSCSVMHEALHNHYTQKSLSLSPGGGGSGGGGSAAGGGGSGGGGSDIQMTQSPSSLSASVGDRVTITCRASQGISSWLAWYQQKPEKAPKSLIYAASSLQSGVPSRFSGSGSGTDFTLTISSLQPEDFATYYCQQYNIYPYTFGQGTKLEIKSGGGGSGGGGSGGGGSEVQLVQSGAEVKKPGESLKISCKGSGYSFTTYWLGWVRQMPGKGLDWIGIMSPVDSDIRYSPSFQGQVTMSVDKSITTAYLQWNSLKASDTAMYYCARRRPGQGYFDFWGQGTLVTVSS
